These results are taken from JP2007175055A (dated 2007).

The target of assay [1] is T1, rhesus monkey CD4 on circulating and lymph node CD4+ cells (rhesus monkey, UniProt P16003 26-458).
T1 construct: whole, on cells; also called アカゲザルCD4+細胞
Description: FACS of rhesus monkey blood cells, indirect staining.

Assay [2] deals with T2, human CD4 V1 polypeptide (AA1-AA113 and/or AA1-AA111) (human, UniProt P01730 26-138).
T2 construct: range 1-113; also called CD4 VI
Description: RIA: CD4-V1 competing with 125I-rsCD4 for immobilised antibody.

Assay [3] concerns the target human CD4 V1V2 polypeptide (AA1-AA180) (human, UniProt P01730 26-205). Description: RIA: CD4-V1V2 (5 ug/ml) competing with 125I-rsCD4 for immobilised antibody.
The target of assay [4] is T3, recombinant soluble human CD4 (AA1-AA375, V1-V4) (human, UniProt P01730 26-400).
T3 construct: range 1-375; also called rsCD4
Nature of the assay: affinity column of human rsCD4 on Affi-Gel 10.

For assay [5], the target named is T4, human CD4 on the cell surface (human, UniProt P01730 26-458).
T4 construct: whole, on cells; also called cell surface CD4; CD4+ cells
Nature of the assay: FACS: H9 cells pre-incubated with 10 ug r-gp120; competitors Leu3A and OKT4A. A general note: Flow cytometry measures light scatter and fluorescence of single cells or particles in a stream.

T1 sequence (P16003 26-458): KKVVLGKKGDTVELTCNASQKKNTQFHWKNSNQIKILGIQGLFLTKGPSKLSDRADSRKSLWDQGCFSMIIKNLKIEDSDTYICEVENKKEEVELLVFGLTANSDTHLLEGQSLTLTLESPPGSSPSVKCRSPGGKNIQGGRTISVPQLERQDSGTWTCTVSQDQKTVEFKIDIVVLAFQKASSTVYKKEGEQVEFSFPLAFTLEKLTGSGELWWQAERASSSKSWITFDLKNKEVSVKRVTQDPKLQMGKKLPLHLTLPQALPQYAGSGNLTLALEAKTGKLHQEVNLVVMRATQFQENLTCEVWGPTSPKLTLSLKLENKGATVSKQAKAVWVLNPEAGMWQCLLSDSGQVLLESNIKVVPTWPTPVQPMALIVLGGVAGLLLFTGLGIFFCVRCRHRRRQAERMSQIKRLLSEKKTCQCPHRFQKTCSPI

B1: mouse monoclonal antibody 5A8 (antibody, V domains shown)
VH: EVKLQESGPELVKPGASVKMSCKASGYTFTSYVIHWVRQKPGQGLDWIGYINPYNDGTDYDEKFKGKATLTSDKSSSTAYMELSSLTSEDSAVYYCAREKDNYATGAWFAYWGQGTTVTVSS
VL: DIVMTQSPSSLAVSVGEKVTMICKSSQSLLYSTNQKNYLAWYQQKPGQSPKLLIYWASTRESGVPDRFTGSGSGTDFTLTISSVKAEDLAVYYCQQYYSYRTFGGGTKLEIK
notes: also called 5A8-2F6; hybridoma ATCC HB 10881 (IVI-10257)
For B1, the binding result in assay [1] is recorded as “binds”; in assay [2], “no binding (tested: 5μg/ml)”; in assay [3], “binds”.

B2: soluble recombinant HIV gp120 (baculovirus) (ligand)
chain: not shown
notes: also called r-gp120; HIV r-gp120
With B2, the binding result in assay [4] and in assay [5] was “binds” in each case.
